Reference: patent US20160326257A1 (PIERRE FABRE MEDICAMENT, published 2016)
Numbering of substitutions follows the chain as printed.

B1: enzymatically deglycosylated m1022C3 (antibody, V domains shown)
VH: QVTLKESGPGILQPSQTLSLTCSFSGFSLDTSGMGVSWIRQPSGKGLEWLAHIYWDDDKRYNPSLKSRLTISKDTSSNQVFLKITSLDTADTATYYCARRSHFGNYYYAMDYWGQGTSVTVTS
VL: DVQMTQTTSSLSASLGDRVTISCRASQDISSYLNWYQQKPDGTFKLLIFYTSRLQSGVPSKYSGSGSGTDYSLTISNLEQEDIAAYFCQQGKTLPLTFGAGTKLELK
notes: also called enzymatically deglycosylated 1022C3
B2: m1022C3 (murine anti-ADAM17 monoclonal antibody 1022C3, hybridoma I-4686) (antibody, V domains shown)
VH: B1 VH with D30N
VL: B1 VL
modifications: N-glycosylated asparagine in CDR-H1
notes: Murine antibody from a hybridoma; also called mAb 1022C3; mAb m1022C3

How the values were obtained:
[1] = target: T1, human ADAM17 on tumour cells (A431, MCF-7, NCI-H1299) (human, UniProt P78536 215-824); assay: binding to NCI-H1299 tumour cells, read as MFI against antibody concentration (Log [M])
T1 construct: Endogenous ADAM17 on human tumour cell lines; also called cellular form of ADAM17
T1 sequence (P78536 215-824 limits assumed): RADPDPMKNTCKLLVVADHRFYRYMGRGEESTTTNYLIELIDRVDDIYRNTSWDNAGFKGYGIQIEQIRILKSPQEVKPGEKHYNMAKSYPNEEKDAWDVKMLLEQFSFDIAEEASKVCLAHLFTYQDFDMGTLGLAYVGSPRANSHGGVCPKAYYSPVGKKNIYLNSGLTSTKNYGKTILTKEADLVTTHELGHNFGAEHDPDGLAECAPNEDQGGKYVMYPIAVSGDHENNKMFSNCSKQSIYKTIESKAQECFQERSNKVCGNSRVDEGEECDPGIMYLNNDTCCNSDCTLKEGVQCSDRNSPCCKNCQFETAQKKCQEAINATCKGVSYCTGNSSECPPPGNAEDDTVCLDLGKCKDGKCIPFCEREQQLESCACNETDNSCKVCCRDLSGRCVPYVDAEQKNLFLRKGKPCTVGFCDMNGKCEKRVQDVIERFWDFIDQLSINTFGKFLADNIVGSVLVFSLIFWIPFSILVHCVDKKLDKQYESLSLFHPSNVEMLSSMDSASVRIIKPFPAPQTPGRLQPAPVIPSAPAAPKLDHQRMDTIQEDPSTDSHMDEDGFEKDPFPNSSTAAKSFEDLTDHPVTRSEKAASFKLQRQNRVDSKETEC

[2] = target: M1-671 (p-c-d-mpd) murine ADAM17 human Fc fusion (murine) (UniProt Q9Z0F8); assay: SPR Biacore X100, about 700 RU m1022C3 captured, construct at 250 nM for 3 min
Sequence of M1-671 (p-c-d-mpd) murine ADAM17 human Fc fusion (murine) (Q9Z0F8 18-671 limits assumed, form in doubt): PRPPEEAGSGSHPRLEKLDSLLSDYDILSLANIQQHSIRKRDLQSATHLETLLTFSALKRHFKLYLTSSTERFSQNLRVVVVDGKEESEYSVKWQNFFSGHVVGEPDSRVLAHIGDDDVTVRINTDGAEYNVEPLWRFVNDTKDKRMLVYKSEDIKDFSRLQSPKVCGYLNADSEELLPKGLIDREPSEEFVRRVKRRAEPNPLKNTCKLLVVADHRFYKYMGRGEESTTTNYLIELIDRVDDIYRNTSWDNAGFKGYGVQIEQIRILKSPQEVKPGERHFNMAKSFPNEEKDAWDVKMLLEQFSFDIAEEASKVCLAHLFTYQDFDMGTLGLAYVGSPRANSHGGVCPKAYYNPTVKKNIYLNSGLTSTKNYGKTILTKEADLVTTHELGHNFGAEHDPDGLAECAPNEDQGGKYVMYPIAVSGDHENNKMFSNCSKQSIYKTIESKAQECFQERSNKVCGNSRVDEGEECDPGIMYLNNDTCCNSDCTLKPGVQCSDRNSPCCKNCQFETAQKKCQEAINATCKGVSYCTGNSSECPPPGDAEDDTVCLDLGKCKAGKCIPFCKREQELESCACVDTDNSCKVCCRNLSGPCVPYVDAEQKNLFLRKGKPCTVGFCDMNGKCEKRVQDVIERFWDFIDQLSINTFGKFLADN

[3] = target: M1-602H603-671 (p-c-d-mpd (Nter)-MPD (Cter)) murine/human chimeric ADAM17 human Fc fusion (murine; human) (UniProt Q9Z0F8); assay: as above
Sequence of M1-602H603-671 (p-c-d-mpd (Nter)-MPD (Cter)) murine/human chimeric ADAM17 human Fc fusion (murine; human) (Q9Z0F8 other isoform, or with tags, fused parts or gaps mutant limits assumed, form in doubt): as the sequence (Q9Z0F8 18-671 limits assumed, form in doubt) above, with N589D, P593R counted along it

[4] = target: ADAM17 fragments and chimeric constructs giving the positive response (BIAcore); assay: as above
[5] = target: soluble ADAM17 (extracellular domain of ADAM-17) (human, UniProt P78536 215-671); assay: SPR Biacore, antibody captured on rabbit anti-mouse IgG, soluble ADAM17 400 to 12.5 nM, 1:1 Langmuir model
Sequence of soluble ADAM17 (extracellular domain of ADAM-17) (P78536 215-671): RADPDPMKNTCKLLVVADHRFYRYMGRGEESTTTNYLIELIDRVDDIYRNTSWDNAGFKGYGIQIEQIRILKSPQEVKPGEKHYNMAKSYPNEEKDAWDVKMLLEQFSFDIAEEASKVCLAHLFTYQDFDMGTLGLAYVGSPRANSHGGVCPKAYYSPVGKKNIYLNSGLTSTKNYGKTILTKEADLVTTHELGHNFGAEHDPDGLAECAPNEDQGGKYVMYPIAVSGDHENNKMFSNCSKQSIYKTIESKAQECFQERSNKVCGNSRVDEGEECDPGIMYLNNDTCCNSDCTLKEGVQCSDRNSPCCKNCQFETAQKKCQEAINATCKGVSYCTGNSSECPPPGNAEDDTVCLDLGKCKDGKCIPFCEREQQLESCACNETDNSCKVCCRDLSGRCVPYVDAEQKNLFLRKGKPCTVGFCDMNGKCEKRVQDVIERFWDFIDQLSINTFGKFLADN
Method: The antibody (ligand) was bound to the second flowcell of a Biacore CM5 sensor chip (GE Healthcare) activated on both flowcells with a Rabbit anti-Mouse (RAM) IgG (H+L) covalently linked to the carboxymethyldextran matrix. Soluble ADAM17 (analyte) at concentrations ranging from 400 to 12.5 nM obtained by a two fold dilution scheme (assuming a molecular weight of 52 kDa) was injected onto the surface at a flow rate of 30 μl/min in a 120 s pulse (association) plus an extra 180 s delay for the dissociation phase measurement. The RAM surface was regenerated using NaOH 30 mM, NaCl 150 mM and 10 mM Glycine, HCl pH 1.5 buffer solutions. Curves obtained at each concentration were double referenced by first subtracting the signal from the reference FC1 surface (RAM without any mouse anti-TACE mAb) followed by subtraction of the signal obtained from a running buffer injection (Biacore HBS-EP buffer).
Data were processed using BIAevaluation 3.1 software using the 1:1 Langmuir model. The suitability of the fit was measured by the values of the Refractive Index (RI) which have to tend to zero and the κ² value.

[6] = target: T2, H223-602 (C-D MPD (Nter)) human ADAM17 human Fc fusion (human, UniProt P78536 223-602); assay: SPR Biacore X100, about 700 RU m1022C3 captured, construct at 250 nM for 3 min
T2 construct: Expressed in HEK293 and purified on protein A; not shown: human Fc domain at the C-terminus
T2 sequence (P78536 223-602): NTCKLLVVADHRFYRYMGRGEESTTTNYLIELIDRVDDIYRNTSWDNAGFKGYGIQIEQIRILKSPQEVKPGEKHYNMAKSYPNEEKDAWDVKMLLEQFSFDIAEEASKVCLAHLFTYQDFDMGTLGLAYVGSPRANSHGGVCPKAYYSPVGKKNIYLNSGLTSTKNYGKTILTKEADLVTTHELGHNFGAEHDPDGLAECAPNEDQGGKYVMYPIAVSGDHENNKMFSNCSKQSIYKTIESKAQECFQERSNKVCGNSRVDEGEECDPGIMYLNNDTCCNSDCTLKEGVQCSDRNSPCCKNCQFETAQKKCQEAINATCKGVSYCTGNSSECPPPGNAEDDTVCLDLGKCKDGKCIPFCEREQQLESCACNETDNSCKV
Method: (§1) The experiment was performed on a Biacore X100 device. The mAb 1022C3 is used as the ligand and the ADAM17 fragments and chimeric constructs are used as the analyte. The experiment is run at 10 μl/min at 25° C. on a rabbit anti-mouse polyclonal antibody (Mouse antibody capture kit, BR-1008-38, GE Healthcare) covalently linked to the matrix of both flowcells of a CM5 sensorchip (BR-1000-12) using the amine coupling kit (BR-1000-50, GE Healthcare), using the HBS-EP+ buffer (BR-1008-26, GE Healthcare) as the running buffer. This buffer is also used for the dilutions of the ligand and the analytes.

[7] = target: T3, H223-563 (C-D) human ADAM17 human Fc fusion (human, UniProt P78536 223-563); assay: as above
T3 construct: Expressed in HEK293 and purified on protein A; not shown: human Fc domain at the C-terminus
T3 sequence (P78536 223-563): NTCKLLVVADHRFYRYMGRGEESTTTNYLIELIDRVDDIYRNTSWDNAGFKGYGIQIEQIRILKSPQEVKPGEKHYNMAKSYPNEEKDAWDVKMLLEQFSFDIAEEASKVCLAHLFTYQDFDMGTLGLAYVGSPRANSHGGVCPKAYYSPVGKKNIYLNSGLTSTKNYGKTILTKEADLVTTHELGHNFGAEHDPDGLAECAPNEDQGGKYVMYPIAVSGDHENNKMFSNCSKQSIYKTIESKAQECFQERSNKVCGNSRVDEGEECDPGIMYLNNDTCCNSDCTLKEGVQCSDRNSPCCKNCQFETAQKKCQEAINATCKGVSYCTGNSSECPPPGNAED
Method: as §1

[8] = target: T4, H475-602 (D-MPD (Nter)) human ADAM17 human Fc fusion (human, UniProt P78536 475-602); assay: as above
T4 construct: Expressed in HEK293 and purified on protein A; not shown: human Fc domain at the C-terminus
T4 sequence (P78536 475-602): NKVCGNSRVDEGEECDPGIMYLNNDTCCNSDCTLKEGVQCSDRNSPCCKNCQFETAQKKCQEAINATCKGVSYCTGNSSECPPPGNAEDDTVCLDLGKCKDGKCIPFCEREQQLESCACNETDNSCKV
Method: as §1

[9] = target: T5, H603-671 (MPD (Cter)) human ADAM17 human Fc fusion (human, UniProt P78536 603-671); assay: as above
T5 construct: Expressed in HEK293 and purified on protein A; not shown: human Fc domain at the C-terminus
T5 sequence (P78536 603-671): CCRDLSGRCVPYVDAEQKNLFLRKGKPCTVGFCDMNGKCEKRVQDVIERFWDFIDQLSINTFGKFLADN
Method: as §1

[10] = target: T6, H475-563 (D) human ADAM17 human Fc fusion (human, UniProt P78536 475-563); assay: as above
T6 construct: Expressed in HEK293 and purified on protein A; not shown: human Fc domain at the C-terminus
T6 sequence (P78536 475-563): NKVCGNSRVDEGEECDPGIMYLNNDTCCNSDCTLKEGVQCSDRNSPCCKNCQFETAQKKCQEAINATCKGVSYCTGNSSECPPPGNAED
Method: as §1

[11] = target: T7, H1-474 (P-C) human ADAM17 human Fc fusion (human, UniProt P78536 18-474); assay: as above
T7 construct: Expressed in HEK293 and purified on protein A; not shown: human Fc domain at the C-terminus
T7 sequence (P78536 18-474): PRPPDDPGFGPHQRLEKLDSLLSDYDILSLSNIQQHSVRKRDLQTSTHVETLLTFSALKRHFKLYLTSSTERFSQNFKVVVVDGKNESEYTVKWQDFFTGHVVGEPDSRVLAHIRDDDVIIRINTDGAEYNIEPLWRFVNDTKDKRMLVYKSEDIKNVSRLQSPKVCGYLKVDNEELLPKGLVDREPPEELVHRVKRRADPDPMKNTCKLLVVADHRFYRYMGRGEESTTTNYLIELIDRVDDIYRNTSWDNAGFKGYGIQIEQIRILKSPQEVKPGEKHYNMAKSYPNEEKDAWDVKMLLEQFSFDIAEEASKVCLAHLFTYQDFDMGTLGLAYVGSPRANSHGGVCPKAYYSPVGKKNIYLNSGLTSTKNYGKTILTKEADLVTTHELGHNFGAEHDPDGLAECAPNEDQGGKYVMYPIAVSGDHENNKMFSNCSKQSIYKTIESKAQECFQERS
Method: as §1

[12] = target: T1, human ADAM17 on tumour cells (A431, …); assay: cell-based or functional assay

Binder | binding result [1] | response (RU) [2] [RU] | response (RU) [3] [RU] | response (RU) [4] [RU] | Kd [5] [nM] | koff [5] [s⁻¹] | kon [5] [M⁻¹ s⁻¹] | response (RU) [6] [RU] | response (RU) [7] [RU] | response (RU) [8] [RU] | response (RU) [9] [RU] | response (RU) [10] [RU] | response (RU) [11] [RU] | IC50 (nM), inhibition of AREG-Nluc shedding from A431 cells [12] [nM] | IC50 (nM), inhibition of HB-EGF-Nluc shedding from A431 cells [12] [nM] | IC50 (nM), inhibition of TGFα-Nluc shedding from A431 cells [12] [nM] | IC50 (nM), inhibition of TNFα-Nluc shedding from A431 cells [12] [nM] | IC50 (nM), mean over the four substrates shed from A431 cells [12] [nM]
B1 | binds |  |  |  |  |  |  |  |  |  |  |  |  |  |  |  |  | 
B2 |  | < 10 | < 10 | 90 to 140 | 1.27 | 0.00036 | 284000 | < 10 | < 10 | < 10 | < 10 | < 10 | < 10 | 0.067 | 0.062 | 0.093 | 0.054 | 0.069
